According to patent publication US20250076311A1 (Chugai, published 2025):

T1: cynomolgus monkey FcγRIIa3 extracellular domain with C-terminal His-tag (cynomolgus monkey)
T1 construct: also called cyno FcgRIIa3; cynoFcγRIIa3
T1 chain: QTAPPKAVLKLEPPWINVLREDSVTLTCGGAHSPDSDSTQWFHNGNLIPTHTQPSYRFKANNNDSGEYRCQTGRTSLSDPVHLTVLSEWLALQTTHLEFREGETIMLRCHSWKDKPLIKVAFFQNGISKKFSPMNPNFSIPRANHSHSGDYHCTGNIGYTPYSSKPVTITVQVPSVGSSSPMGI

T2: human FcγRIIaH extracellular domain with C-terminal His-tag (human, UniProt P12318 34-217)
T2 construct: also called human FcgRIIaH; FcγRIIa (type H)
T2 sequence: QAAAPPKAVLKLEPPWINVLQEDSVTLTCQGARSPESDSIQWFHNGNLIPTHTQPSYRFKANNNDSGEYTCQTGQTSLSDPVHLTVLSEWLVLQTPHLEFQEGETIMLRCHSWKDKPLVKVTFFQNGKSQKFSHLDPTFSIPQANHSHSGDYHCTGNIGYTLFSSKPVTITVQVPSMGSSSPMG

T3: human FcγRIIaR extracellular domain with C-terminal His-tag (human, UniProt P12318 34-217)
T3 construct: also called human FcgRIIaR; FcγRIIa (type R)
T3 chain: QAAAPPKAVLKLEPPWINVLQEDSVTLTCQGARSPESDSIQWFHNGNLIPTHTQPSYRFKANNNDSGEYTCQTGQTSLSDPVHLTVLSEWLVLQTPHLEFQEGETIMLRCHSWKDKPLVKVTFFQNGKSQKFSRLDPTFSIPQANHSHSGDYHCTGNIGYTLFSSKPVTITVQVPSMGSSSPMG

T4: cynomolgus monkey FcγRIIb extracellular domain, His-tagged (cynomolgus monkey)
T4 construct: also called cyno FcγRIIb; cynoFcgRIIb
T4 chain: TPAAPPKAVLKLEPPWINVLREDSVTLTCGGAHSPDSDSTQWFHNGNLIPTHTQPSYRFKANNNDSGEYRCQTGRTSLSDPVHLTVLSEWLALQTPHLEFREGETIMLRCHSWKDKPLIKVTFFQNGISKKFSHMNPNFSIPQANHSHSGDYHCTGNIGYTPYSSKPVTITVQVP

T5: cynomolgus monkey FcγRIIIaS extracellular domain, His-tagged (cynomolgus monkey, UniProt Q8SPW2 21-206 at identity 1.00))
T5 construct: also called cyno FcγRIIIaS; cynoFcgRIIIaS
T5 chain: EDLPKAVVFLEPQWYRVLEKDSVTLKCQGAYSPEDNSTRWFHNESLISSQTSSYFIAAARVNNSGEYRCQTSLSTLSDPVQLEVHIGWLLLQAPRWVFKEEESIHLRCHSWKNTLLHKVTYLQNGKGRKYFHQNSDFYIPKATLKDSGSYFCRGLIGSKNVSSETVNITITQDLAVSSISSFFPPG

T6: human FcγRIIaH extracellular domain, His-tagged (human, UniProt P12318 34-217)
T6 construct: also called human FcγRIIa (type H); FcgRIIaH
T6 sequence: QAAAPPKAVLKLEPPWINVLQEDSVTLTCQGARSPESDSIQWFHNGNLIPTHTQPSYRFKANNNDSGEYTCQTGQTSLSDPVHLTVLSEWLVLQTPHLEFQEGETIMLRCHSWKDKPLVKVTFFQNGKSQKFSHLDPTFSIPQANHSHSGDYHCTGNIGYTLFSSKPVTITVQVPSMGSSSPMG


What was measured:
[1] = molecular target: T1, cynomolgus monkey FcγRIIa3 …; assay: SPR (Biacore), KD of SG1 / KD of variant
[2] = molecular target: T2, human FcγRIIaH extracellular domain …; assay: SPR (Biacore), KD of SG1 / KD of variant
[3] = molecular target: T3, human FcγRIIaR extracellular domain …; assay: SPR (Biacore), KD of SG1 / KD of variant
[4] = molecular target: T7, human FcγRIIIaV extracellular domain with C-terminal His-tag (human, UniProt P08637 17-208); assay: SPR (Biacore), KD of SG1 / KD of variant
T7 construct: also called human FcgRIIIaV
T7 sequence (P08637 17-208 F176V): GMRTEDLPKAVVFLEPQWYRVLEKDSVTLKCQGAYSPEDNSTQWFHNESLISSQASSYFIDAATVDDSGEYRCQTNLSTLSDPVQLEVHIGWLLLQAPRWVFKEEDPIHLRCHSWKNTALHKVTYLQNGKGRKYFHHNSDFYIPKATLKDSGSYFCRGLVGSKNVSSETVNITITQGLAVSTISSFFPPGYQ

[5] = molecular target: T8, human FcγRIIIaV extracellular domain, His-tagged (human, UniProt P08637 17-208); assay: SPR (BIACORE), antibody captured, FcγR analyte, 25 C; KD of SG1 divided by KD of variant
T8 construct: also called human FcγRIIIa (V158); FcgRIIIaV
T8 sequence (P08637 17-208 F176V): as above
Protocol: (§1) The kinetic analysis of interactions between these antibodies and FcγR was carried out using BIACORE® T200 or BIACORE® 4000 (GE Healthcare). HBS-EP+ (GE Healthcare) was used as the running buffer, and the measurement temperature was set to 25° C. […] After the measurement, the antibody captured on the chip was washed off by allowing reaction with 10 mM glycine-HCl, pH1.5 and 25 mM NaOH so that the chip was regenerated and used repeatedly. The sensorgrams obtained as measurement results were analyzed by the 1:1 Langmuir binding model using the BIACORE® Evaluation Software to calculate the binding rate constant ka (L/mol/s) and dissociation rate constant kd (1/s), and the dissociation constant KD (mol/L) was calculated from these values. […] Regarding such interactions, KD values were calculated using the following 1:1 binding model described in BIACORE® T100 Software Handbook BR1006-48 Edition AE.

[6] = molecular target: T4, cynomolgus monkey FcγRIIb extracellular …; assay: as above
Protocol: as §1

[7] = molecular target: T5, cynomolgus monkey FcγRIIIaS …; assay: as above
Protocol: as §1

[8] = molecular target: T6, human FcγRIIaH extracellular domain, …; assay: as above
Protocol: as §1

Binder | KD fold (SG1 = 1) [5] | KD fold (SG1 = 1) [6] | KD fold (SG1 = 1) [7] | further results
M103205H795-MY444/M103202L889-SK1 (antibody, human IgG1, kappa, Substitutions in EU numbering on SG1) heavy: QVTLKESGPVLVKPTETLTLTCTVSGIDLSHDDISWVRQAPGKGLEWVGIISYAGSTYYASWAKGRLTISKDTSKNQVVLTMTNMDPVDTATYYCARGVPAYSHGGDLWGQGTLVTVSSASTKGPSVFPLAPSSKSTSGGTAALGCLVKDYFPEPVTVSWNSGALTSGVHTFPAVLQSSGLYSLSSVVTVPSSSLGTQTYICNVNHKPSNTKVDKKVEPKSCDKTHTCPPCPAFELLTGPSVFLFPPKPKDTLMISRTPEVTCVVVDVSDEDPEVKFNWYVDGVEVHNAKTKPREEQYNSTYRVVSVLTVLHQDWLNGKEYKCKVSNKALPKPIEKTISKAKGQPREPQVYTLPPSREEMTKNQVSLTCLVKGFYPSDIAVEWESNGQPENNYKTTPPVLDSDGSFFLYSKLTVDKSRWQQGNVFSCSVMHEALHNHYTQKSLSLSP light: DIVMTQSPATLSLSPGERATLSCTSSQSVYHANWLSWFQQKPGQPPKLLIYWASTLAYGVPSRFSGSGSGTDFTLTISSLQPEDAATYYCAGGYGGGRYAFGQGTKVEIKRTVAAPSVFIFPPSDEQLKSGTASVVCLLNNFYPREAKVQWKVDNALQSGNSQESVTEQDSKDSTYSLSSTLTLSKADYEKHKVYACEVTHQGLSSPVTKSFNRGEC |  |  |  | KD fold (SG1 = 1) [1]: 8.9 fold; KD fold (SG1 = 1) [2]: 6.5 fold; KD fold (SG1 = 1) [3]: 7.5 fold; KD fold (SG1 = 1) [4]: 0.2 fold
M103205H795-MY449/M103202L889-SK1 (antibody, human IgG1, kappa, name in EU numbering) heavy: QVTLKESGPVLVKPTETLTLTCTVSGIDLSHDDISWVRQAPGKGLEWVGIISYAGSTYYASWAKGRLTISKDTSKNQVVLTMTNMDPVDTATYYCARGVPAYSHGGDLWGQGTLVTVSSASTKGPSVFPLAPSSKSTSGGTAALGCLVKDYFPEPVTVSWNSGALTSGVHTFPAVLQSSGLYSLSSVVTVPSSSLGTQTYICNVNHKPSNTKVDKKVEPKSCDKTHTCPPCPALELLTGPSVFLFPPKPKDTLMISRTPEVTCVVVDVSDEDPEVKFNWYVDGVEVHNAKTKPREEQYNSTYRVVSVLTVLHQDWLNGKEYKCKVSNKALPKPIEKTISKAKGQPREPQVYTLPPSREEMTKNQVSLTCLVKGFYPSDIAVEWESNGQPENNYKTTPPVLDSDGSFFLYSKLTVDKSRWQQGNVFSCSVMHEALHNHYTQKSLSLSP light: DIVMTQSPATLSLSPGERATLSCTSSQSVYHANWLSWFQQKPGQPPKLLIYWASTLAYGVPSRFSGSGSGTDFTLTISSLQPEDAATYYCAGGYGGGRYAFGQGTKVEIKRTVAAPSVFIFPPSDEQLKSGTASVVCLLNNFYPREAKVQWKVDNALQSGNSQESVTEQDSKDSTYSLSSTLTLSKADYEKHKVYACEVTHQGLSSPVTKSFNRGEC | 0.2 fold |  |  | 
M103205H795-MY457/M103202L889-SK1 (antibody, human IgG1, kappa, name in EU numbering) heavy: QVTLKESGPVLVKPTETLTLTCTVSGIDLSHDDISWVRQAPGKGLEWVGIISYAGSTYYASWAKGRLTISKDTSKNQVVLTMTNMDPVDTATYYCARGVPAYSHGGDLWGQGTLVTVSSASTKGPSVFPLAPSSKSTSGGTAALGCLVKDYFPEPVTVSWNSGALTSGVHTFPAVLQSSGLYSLSSVVTVPSSSLGTQTYICNVNHKPSNTKVDKKVEPKSCDKTHTCPPCPAWELLTGPSVFLFPPKPKDTLMISRTPEVTCVVVDVSDEDPEVKFNWYVDGVEVHNAKTKPREEQYNSTYRVVSVLTVLHQDWLNGKEYKCKVSNKALPKPIEKTISKAKGQPREPQVYTLPPSREEMTKNQVSLTCLVKGFYPSDIAVEWESNGQPENNYKTTPPVLDSDGSFFLYSKLTVDKSRWQQGNVFSCSVMHEALHNHYTQKSLSLSP light: DIVMTQSPATLSLSPGERATLSCTSSQSVYHANWLSWFQQKPGQPPKLLIYWASTLAYGVPSRFSGSGSGTDFTLTISSLQPEDAATYYCAGGYGGGRYAFGQGTKVEIKRTVAAPSVFIFPPSDEQLKSGTASVVCLLNNFYPREAKVQWKVDNALQSGNSQESVTEQDSKDSTYSLSSTLTLSKADYEKHKVYACEVTHQGLSSPVTKSFNRGEC |  |  |  | KD fold (SG1 = 1) [8]: 5.6 fold

The next lines start with results.

KD fold (SG1 = 1) [5] | KD fold (SG1 = 1) [6] | KD fold (SG1 = 1) [7] | Binder | further results
0.2 fold | 0.9 fold | 0.2 fold | M103205H795-MY453/M103202L889-SK1 (antibody, human IgG1, kappa, name in EU numbering) heavy: QVTLKESGPVLVKPTETLTLTCTVSGIDLSHDDISWVRQAPGKGLEWVGIISYAGSTYYASWAKGRLTISKDTSKNQVVLTMTNMDPVDTATYYCARGVPAYSHGGDLWGQGTLVTVSSASTKGPSVFPLAPSSKSTSGGTAALGCLVKDYFPEPVTVSWNSGALTSGVHTFPAVLQSSGLYSLSSVVTVPSSSLGTQTYICNVNHKPSNTKVDKKVEPKSCDKTHTCPPCPARELLTGPSVFLFPPKPKDTLMISRTPEVTCVVVDVSDEDPEVKFNWYVDGVEVHNAKTKPREEQYNSTYRVVSVLTVLHQDWLNGKEYKCKVSNKALPKPIEKTISKAKGQPREPQVYTLPPSREEMTKNQVSLTCLVKGFYPSDIAVEWESNGQPENNYKTTPPVLDSDGSFFLYSKLTVDKSRWQQGNVFSCSVMHEALHNHYTQKSLSLSP light: DIVMTQSPATLSLSPGERATLSCTSSQSVYHANWLSWFQQKPGQPPKLLIYWASTLAYGVPSRFSGSGSGTDFTLTISSLQPEDAATYYCAGGYGGGRYAFGQGTKVEIKRTVAAPSVFIFPPSDEQLKSGTASVVCLLNNFYPREAKVQWKVDNALQSGNSQESVTEQDSKDSTYSLSSTLTLSKADYEKHKVYACEVTHQGLSSPVTKSFNRGEC | 
0.2 fold | 1.8 fold | 0.2 fold | M103205H795-MY454/M103202L889-SK1 (antibody, human IgG1, kappa, name in EU numbering) heavy: QVTLKESGPVLVKPTETLTLTCTVSGIDLSHDDISWVRQAPGKGLEWVGIISYAGSTYYASWAKGRLTISKDTSKNQVVLTMTNMDPVDTATYYCARGVPAYSHGGDLWGQGTLVTVSSASTKGPSVFPLAPSSKSTSGGTAALGCLVKDYFPEPVTVSWNSGALTSGVHTFPAVLQSSGLYSLSSVVTVPSSSLGTQTYICNVNHKPSNTKVDKKVEPKSCDKTHTCPPCPASELLTGPSVFLFPPKPKDTLMISRTPEVTCVVVDVSDEDPEVKFNWYVDGVEVHNAKTKPREEQYNSTYRVVSVLTVLHQDWLNGKEYKCKVSNKALPKPIEKTISKAKGQPREPQVYTLPPSREEMTKNQVSLTCLVKGFYPSDIAVEWESNGQPENNYKTTPPVLDSDGSFFLYSKLTVDKSRWQQGNVFSCSVMHEALHNHYTQKSLSLSP light: DIVMTQSPATLSLSPGERATLSCTSSQSVYHANWLSWFQQKPGQPPKLLIYWASTLAYGVPSRFSGSGSGTDFTLTISSLQPEDAATYYCAGGYGGGRYAFGQGTKVEIKRTVAAPSVFIFPPSDEQLKSGTASVVCLLNNFYPREAKVQWKVDNALQSGNSQESVTEQDSKDSTYSLSSTLTLSKADYEKHKVYACEVTHQGLSSPVTKSFNRGEC | 
